PMC3968163

B1: unnamed (parent)
chain 1: SIDPADLDESWDYIFETTESPSSD
chain 2: MSHSGAAIFEKVSGIIAINEDVSPAELTWRSTDGDKVHTVVLSTIDKLQATPASSEKMMLRLIGKVDESKKRKDNEGNEVVPKPQRHMFSFNNRTVMDNIKMTLQQIISRYKDAD

Variants of: B1
Experiment: ITC
Details: with partner chain of the complex shown; 25°C in a 20 mM Tris pH 7.4

Row | Variant | Kd
1 | chain 1 SIDPADLDESWDYSFETTESPSSD [chain 1 I14S] | 4.2 µM
